Data: US20140248710A1
Ends that are not written are not given here.

Molecular target: G-131-C affinity purified goat polyclonal antibody against the N-terminus of cardiac troponin I (BiosPacific, Emeryville, Calif.)
Assay: Competition FRET: the unlabeled N-terminal CTnI peptide is titrated against the labeled peptide-oligo conjugates for binding to G-131-C. The antibody concentration of the inset is not given. [inset]

In the case of MADGSSDAAREPRPAC (not fully specified) [Unlabeled N-terminal CTnI peptide], the IC50 (read off the curve) is reported as 40 nM.
